Data taken from publication PMC4911930.

Molecular target: CENP-T^HFD/-W complex, Q5EE01
Assay: GST pull-down (Coomassie gel quantification)
Conditions: chain shown with the change, parent: est. 100, read off a plot

CENP-T^HFD/-W complex, Q5EE01, sequence (chain, as listed by the source, chain 1 of 2): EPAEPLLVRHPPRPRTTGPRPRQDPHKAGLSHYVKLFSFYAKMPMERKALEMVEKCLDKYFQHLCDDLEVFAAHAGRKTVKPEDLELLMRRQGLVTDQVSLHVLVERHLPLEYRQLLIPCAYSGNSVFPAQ
CENP-T^HFD/-W complex, Q5EE01, sequence (Q5EE01 whole entry, chain 2 of 2): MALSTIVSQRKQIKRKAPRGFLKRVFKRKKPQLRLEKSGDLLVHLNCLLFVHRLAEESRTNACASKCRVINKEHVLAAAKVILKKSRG

- percent of parent (Exp=1): 81 % Pull-down
- percent of parent (Exp=2): 90 % Pull-down
Binder: EPEGEGSDAAAAAAESEIEDETFNPSEDDYEEEEEDSDED [GST-Spt16 amino acids 926–965, Q9Y5B9 E935A; E936A; G937A; D938A; S939A]
